In US20030199423A1:

Key:
[1] = biological target: LFA-1 (CD18/CD11a) (human) (UniProt P20701); assay: inhibition of neutrophil adhesion to coated ICAM-R/Ig, antibody 15 µg/ml
[2] = biological target: LFA-1 (CD18/CD11a) (human) (UniProt P20701); assay: inhibition of CD18-dependent adhesion of PMA-treated JY cells to coated shICAM-R, antibody 10 µg/ml; defines total CD18-dependent binding
[3] = biological target: LFA-1 (CD18/CD11a) (human) (UniProt P20701); assay: inhibition of SKW3 cell adhesion to coated soluble ICAM-R, peptide 1-2 mg/ml

Chain of LFA-1 (CD18/CD11a) (human) (P20701 26-1170, chain 1 of 2): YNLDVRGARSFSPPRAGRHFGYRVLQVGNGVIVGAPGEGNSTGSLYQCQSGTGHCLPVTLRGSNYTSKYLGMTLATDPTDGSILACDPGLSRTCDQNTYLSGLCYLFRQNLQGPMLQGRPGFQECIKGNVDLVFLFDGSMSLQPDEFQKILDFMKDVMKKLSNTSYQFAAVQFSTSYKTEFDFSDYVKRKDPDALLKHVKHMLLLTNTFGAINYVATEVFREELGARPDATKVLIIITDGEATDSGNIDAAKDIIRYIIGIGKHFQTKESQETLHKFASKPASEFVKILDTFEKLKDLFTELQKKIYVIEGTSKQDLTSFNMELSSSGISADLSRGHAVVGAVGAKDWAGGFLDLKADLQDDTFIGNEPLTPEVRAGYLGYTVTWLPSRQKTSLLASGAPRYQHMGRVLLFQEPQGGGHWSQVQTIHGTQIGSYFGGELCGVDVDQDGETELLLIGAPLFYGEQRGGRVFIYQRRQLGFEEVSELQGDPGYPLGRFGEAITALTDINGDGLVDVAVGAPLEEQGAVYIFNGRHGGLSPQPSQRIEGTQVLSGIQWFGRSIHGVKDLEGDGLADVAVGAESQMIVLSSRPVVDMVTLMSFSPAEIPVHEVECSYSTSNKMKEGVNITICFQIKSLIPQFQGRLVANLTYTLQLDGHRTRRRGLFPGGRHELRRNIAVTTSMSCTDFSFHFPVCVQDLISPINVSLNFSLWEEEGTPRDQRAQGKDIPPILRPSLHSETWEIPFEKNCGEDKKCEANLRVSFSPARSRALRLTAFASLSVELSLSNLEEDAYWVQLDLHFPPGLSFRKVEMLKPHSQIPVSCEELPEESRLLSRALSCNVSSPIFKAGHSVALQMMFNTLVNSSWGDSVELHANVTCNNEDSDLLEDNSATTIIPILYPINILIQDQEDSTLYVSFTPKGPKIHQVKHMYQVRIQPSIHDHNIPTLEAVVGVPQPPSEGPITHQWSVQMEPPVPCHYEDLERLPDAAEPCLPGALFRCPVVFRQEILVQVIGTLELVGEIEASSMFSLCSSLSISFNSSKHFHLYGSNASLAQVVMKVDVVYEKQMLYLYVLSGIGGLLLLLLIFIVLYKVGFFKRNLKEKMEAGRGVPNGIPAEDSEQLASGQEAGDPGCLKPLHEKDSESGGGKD
Chain of LFA-1 (CD18/CD11a) (human) (P05107 23-769, chain 2 of 2, further chain): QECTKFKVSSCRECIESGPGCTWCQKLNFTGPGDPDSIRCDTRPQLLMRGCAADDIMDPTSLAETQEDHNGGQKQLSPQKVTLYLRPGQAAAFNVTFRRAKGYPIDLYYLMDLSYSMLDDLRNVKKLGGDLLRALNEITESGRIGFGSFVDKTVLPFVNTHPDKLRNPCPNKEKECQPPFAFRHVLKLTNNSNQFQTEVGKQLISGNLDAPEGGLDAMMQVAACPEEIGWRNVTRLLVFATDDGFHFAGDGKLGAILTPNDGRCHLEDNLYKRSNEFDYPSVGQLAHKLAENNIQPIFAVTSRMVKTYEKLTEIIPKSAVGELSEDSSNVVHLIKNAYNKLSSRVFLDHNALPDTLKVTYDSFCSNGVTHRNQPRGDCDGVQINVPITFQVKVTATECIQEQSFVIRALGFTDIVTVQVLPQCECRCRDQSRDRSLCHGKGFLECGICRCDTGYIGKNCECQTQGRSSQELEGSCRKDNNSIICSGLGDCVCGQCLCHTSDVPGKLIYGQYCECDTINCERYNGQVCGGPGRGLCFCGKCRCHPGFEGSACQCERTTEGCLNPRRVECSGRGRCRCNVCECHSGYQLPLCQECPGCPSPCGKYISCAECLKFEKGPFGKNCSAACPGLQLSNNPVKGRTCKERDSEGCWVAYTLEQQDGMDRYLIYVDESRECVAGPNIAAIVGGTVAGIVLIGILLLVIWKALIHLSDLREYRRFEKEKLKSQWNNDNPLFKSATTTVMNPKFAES

Q: anti-CD11a monoclonal antibody TS1/22 was tested. Which percent inhibition of neutrophil binding to ICAM-R [1] did it give?
A: Its percent inhibition of neutrophil binding to ICAM-R is 50%.

Q: anti-CD18 monoclonal antibody 60.3 was tested. Which Inhibition (%) [2] did it give?
A: Its Inhibition (%) is 100%.

Q: With “ICAM-R domain 1 peptide (NGSQI), residues 72-76” as the substance, how does the % Inhibition [3] read?
A: The % Inhibition was 26%.
